Experimental data published in US7070788.

Tests used:
[1] = biological target: porcine TSH receptor (solubilized porcine thyroid membranes) (porcine) (UniProt Q8SPP9); assay: competitive displacement of 125I-bTSH from solubilized porcine thyroid membranes
[2] = biological target: human TSH receptor (CHO-JP09 cells) (human) (UniProt P16473); assay: cell-based or functional assay
[3] = biological target: rat TSH receptor (FRTL-5 cells) (rat) (UniProt P21463); assay: cell-based or functional assay
Sequence of rat TSH receptor (FRTL-5 cells) (rat) (P21463 22-764): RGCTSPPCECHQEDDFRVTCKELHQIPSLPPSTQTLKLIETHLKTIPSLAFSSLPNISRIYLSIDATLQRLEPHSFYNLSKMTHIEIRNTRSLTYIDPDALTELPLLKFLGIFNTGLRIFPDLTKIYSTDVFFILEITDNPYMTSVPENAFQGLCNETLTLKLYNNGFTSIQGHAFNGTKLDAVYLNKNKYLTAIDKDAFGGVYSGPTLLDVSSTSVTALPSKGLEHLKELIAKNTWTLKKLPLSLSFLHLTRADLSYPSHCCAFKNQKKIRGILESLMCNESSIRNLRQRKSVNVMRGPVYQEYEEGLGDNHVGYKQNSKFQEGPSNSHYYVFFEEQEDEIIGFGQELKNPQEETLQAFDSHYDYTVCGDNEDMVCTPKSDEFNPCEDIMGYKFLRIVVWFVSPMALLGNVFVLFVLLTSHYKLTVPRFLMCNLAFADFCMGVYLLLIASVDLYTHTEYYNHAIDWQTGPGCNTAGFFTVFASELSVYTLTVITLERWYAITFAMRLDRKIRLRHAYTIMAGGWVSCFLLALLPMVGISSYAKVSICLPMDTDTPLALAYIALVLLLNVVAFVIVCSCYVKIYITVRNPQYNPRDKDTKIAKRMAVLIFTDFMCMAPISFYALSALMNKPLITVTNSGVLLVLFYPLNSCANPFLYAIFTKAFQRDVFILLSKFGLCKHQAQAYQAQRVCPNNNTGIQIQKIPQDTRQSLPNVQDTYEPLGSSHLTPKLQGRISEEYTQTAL

[4] = biological target: hCG (LH/CG) receptor of MA-10 transformed murine Leydig cells (murine) (UniProt P30730); assay: cell-based or functional assay
Sequence of hCG (LH/CG) receptor of MA-10 transformed murine Leydig cells (murine) (P30730 27-700): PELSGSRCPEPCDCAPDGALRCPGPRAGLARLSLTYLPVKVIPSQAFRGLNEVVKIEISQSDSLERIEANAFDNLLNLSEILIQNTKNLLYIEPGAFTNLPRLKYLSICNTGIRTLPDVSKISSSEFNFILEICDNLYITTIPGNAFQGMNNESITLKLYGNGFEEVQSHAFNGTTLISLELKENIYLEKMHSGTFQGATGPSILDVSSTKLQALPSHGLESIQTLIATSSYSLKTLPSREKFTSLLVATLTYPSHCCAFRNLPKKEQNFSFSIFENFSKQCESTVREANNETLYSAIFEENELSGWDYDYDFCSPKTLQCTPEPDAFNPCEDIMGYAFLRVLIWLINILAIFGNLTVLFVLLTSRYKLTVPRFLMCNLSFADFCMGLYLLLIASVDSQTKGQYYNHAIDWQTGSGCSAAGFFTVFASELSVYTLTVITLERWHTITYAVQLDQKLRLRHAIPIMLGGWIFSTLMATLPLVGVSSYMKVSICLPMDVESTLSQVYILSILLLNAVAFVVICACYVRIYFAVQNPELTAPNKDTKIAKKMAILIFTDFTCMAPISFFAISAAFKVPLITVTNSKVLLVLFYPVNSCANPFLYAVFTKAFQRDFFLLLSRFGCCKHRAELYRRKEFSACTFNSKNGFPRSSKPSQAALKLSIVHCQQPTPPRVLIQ

[5] = biological target: porcine TSH receptor (solubilized porcine thyroid membranes) (porcine) (UniProt Q8SPP9); assay: competitive binding assay to porcine thyroid membranes
[6] = biological target: hCG (LH/CG) receptor of MA-10 transformed murine Leydig cells (murine) (UniProt P30730); assay: competitive binding with 125I-hCG on MA-10 cells

Sequence of porcine TSH receptor (solubilized porcine thyroid membranes) (porcine) (Q8SPP9 22-764): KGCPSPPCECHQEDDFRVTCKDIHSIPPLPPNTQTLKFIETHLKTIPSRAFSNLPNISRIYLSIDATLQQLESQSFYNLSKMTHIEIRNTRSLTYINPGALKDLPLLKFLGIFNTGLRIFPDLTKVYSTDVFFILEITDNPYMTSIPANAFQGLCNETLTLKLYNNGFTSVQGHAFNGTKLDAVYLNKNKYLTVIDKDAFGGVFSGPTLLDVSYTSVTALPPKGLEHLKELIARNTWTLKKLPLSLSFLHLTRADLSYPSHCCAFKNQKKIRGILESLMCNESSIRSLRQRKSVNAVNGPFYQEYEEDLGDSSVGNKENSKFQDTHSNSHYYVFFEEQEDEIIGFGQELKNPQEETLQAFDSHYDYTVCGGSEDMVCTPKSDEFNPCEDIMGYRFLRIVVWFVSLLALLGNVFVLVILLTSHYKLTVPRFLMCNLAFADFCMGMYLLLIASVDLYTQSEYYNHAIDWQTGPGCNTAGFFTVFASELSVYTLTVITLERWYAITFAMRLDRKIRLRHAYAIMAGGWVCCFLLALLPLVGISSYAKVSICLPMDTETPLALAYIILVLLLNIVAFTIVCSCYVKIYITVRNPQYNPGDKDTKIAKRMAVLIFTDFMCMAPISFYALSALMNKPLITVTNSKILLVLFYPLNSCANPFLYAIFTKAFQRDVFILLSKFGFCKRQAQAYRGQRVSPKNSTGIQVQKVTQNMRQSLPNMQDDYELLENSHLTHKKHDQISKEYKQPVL

Substance: hTSH mutant TSHβ-L69R + α Q13K + P16K + Q20K (from UniProt P01215 25-116; P01222 21-132) (ligand)
- EC25 of inhibition of 125I-bTSH binding [1]: 1.8 ng/mL
- cAMP stimulation in JP09 cells, EC50 [2]: 0.19 ng/mL
- cAMP stimulation in JP09 cells, Relative potency (WT = 1) (fold (WT = 1)) [2]: 35.3
- fold lower concentration than WT-hTSH for half-maximal stimulation of 3H-thymidine incorporation in FRTL-5 cells [3]: 27 fold

Substance: hTSH α-subunit mutant Q13K (from UniProt P01215 25-116; P01222 21-132) (ligand)
- EC25 of inhibition of 125I-bTSH binding [1]: 22.5 ng/mL
- cAMP stimulation in JP09 cells, EC50 [2]: 1.89 ng/mL
- cAMP stimulation in JP09 cells, Relative potency (WT = 1) (fold (WT = 1)) [2]: 3.5

Substance: hTSH α-subunit mutant T11K (from UniProt P01215 25-116; P01222 21-132) (ligand)
- EC25 of inhibition of 125I-bTSH binding [1]: 68.3 ng/mL
- cAMP stimulation in JP09 cells, EC50 [2]: 4.47 ng/mL
- cAMP stimulation in JP09 cells, Relative potency (WT = 1) (fold (WT = 1)) [2]: 1.5

Substance: hTSH α-subunit triple mutant Q13K + P16K + Q20K with WT-hTSHβ (from UniProt P01215 25-116; P01222 21-132) (ligand)
- EC25 of inhibition of 125I-bTSH binding [1]: 2.3 ng/mL
- cAMP stimulation in JP09 cells, EC50 [2]: 0.28 ng/mL
- cAMP stimulation in JP09 cells, Relative potency (WT = 1) (fold (WT = 1)) [2]: 23.9
- fold lower concentration than WT-hTSH for half-maximal stimulation of 3H-thymidine incorporation in FRTL-5 cells [3]: 18 fold

Substance: hTSH α-subunit mutant Q20K (from UniProt P01215 25-116; P01222 21-132) (ligand)
- EC25 of inhibition of 125I-bTSH binding [1]: 21.3 ng/mL
- cAMP stimulation in JP09 cells, EC50 [2]: 1.16 ng/mL
- cAMP stimulation in JP09 cells, Relative potency (WT = 1) (fold (WT = 1)) [2]: 5.8

Substance: hCG α-subunit mutant Q50P (from UniProt P01215 25-116; P0DN86 21-165) (ligand)
- Progesterone synthesis in MA10 cells, EC50 [4]: 3.9 ng/mL
- Progesterone synthesis in MA10 cells, Max (%) [4]: 137 % of WT-hCG

Substance: hCG α-subunit mutant R67K (from UniProt P01215 25-116; P0DN86 21-165) (ligand)
- Progesterone synthesis in MA10 cells, EC50 [4]: 4.6 ng/mL
- Progesterone synthesis in MA10 cells, Max (%) [4]: 145 % of WT-hCG

Substance: hCG α-subunit triple mutant Q13K + P16K + Q20K (from UniProt P01215 25-116; P0DN86 21-165) (ligand)
- Progesterone synthesis in MA10 cells, EC50 [4]: 1.58 ng/mL
- Progesterone synthesis in MA10 cells, Max (%) [4]: 216 % of WT-hCG

Substance: hTSH α-subunit mutant Q50P (from UniProt P01215 25-116; P01222 21-132) (ligand)
- EC25 of inhibition of 125I-bTSH binding [1]: 77.5 ng/mL
- cAMP stimulation in JP09 cells, EC50 [2]: 5.54 ng/mL
- cAMP stimulation in JP09 cells, Relative potency (WT = 1) (fold (WT = 1)) [2]: 1.2

Substance: hTSH β-subunit mutant I58R (from UniProt P01215 25-116; P01222 21-132) (ligand)
- potency relative to hTSH [2]: 2 to 4 fold
- potency relative to hTSH [3]: 2 to 4 fold

Substance: hCG α-subunit mutant Q13K (from UniProt P01215 25-116; P0DN86 21-165) (ligand)
- Progesterone synthesis in MA10 cells, EC50 [4]: 2.46 ng/mL
- Progesterone synthesis in MA10 cells, Max (%) [4]: 115 % of WT-hCG

Substance: hTSH α-subunit quadruple mutant Q13K + P16K + Q20K + E14K (from UniProt P01215 25-116; P01222 21-132) (ligand)
- EC25 of inhibition of 125I-bTSH binding [1]: 2.1 ng/mL
- cAMP stimulation in JP09 cells, EC50 [2]: 0.17 ng/mL
- cAMP stimulation in JP09 cells, Relative potency (WT = 1) (fold (WT = 1)) [2]: 39.4
- efficacy (maximal response) of cAMP stimulation in CHO-JP09 cells, fold over WT-hTSH [2]: 1.5 fold

Substance: hTSH β-subunit mutant TSHβ-L69R (from UniProt P01215 25-116; P01222 21-132) (ligand)
- cAMP stimulation in JP09 cells, EC50 [2]: 2.75 ng/mL
- cAMP stimulation in JP09 cells, Relative potency (WT = 1) (fold (WT = 1)) [2]: 2.4

Substance: hCG α-subunit mutant Q20K (from UniProt P01215 25-116; P0DN86 21-165) (ligand)
- Progesterone synthesis in MA10 cells, EC50 [4]: 2.98 ng/mL
- Progesterone synthesis in MA10 cells, Max (%) [4]: 134 % of WT-hCG

Substance: hTSH α-subunit mutant R67K (from UniProt P01215 25-116; P01222 21-132) (ligand)
- EC25 of inhibition of 125I-bTSH binding [1]: 62.5 ng/mL
- cAMP stimulation in JP09 cells, EC50 [2]: 7.36 ng/mL
- cAMP stimulation in JP09 cells, Relative potency (WT = 1) (fold (WT = 1)) [2]: 0.9

Substance: hTSH α-subunit mutant P16K (from UniProt P01215 25-116; P01222 21-132) (ligand)
- EC25 of inhibition of 125I-bTSH binding [1]: 18.3 ng/mL
- cAMP stimulation in JP09 cells, EC50 [2]: 1.05 ng/mL
- cAMP stimulation in JP09 cells, Relative potency (WT = 1) (fold (WT = 1)) [2]: 6.4
- fold greater affinity than WT-hTSH [5]: 5 fold

Substance: hCG α-subunit mutant P16K with WT-hCGβ (from UniProt P01215 25-116; P0DN86 21-165) (ligand)
- fold receptor binding activity over WT-hCG [6]: 4 fold
- Progesterone synthesis in MA10 cells, EC50 [4]: 2.05 ng/mL
- Progesterone synthesis in MA10 cells, Max (%) [4]: 161 % of WT-hCG
- progesterone release assay, fold potency over wild type [4]: 3.4 fold
- stimulation of progesterone production in MA-10 cells, fold over WT-hCG [4]: 4 fold

Substance: hTSH mutant TSHβ-L69R + α Q13K + P16K + Q20K + E14K (from UniProt P01215 25-116; P01222 21-132) (ligand)
- EC25 of inhibition of 125I-bTSH binding [1]: 1.3 ng/mL
- cAMP stimulation in JP09 cells, EC50 [2]: 0.07 ng/mL
- cAMP stimulation in JP09 cells, Relative potency (WT = 1) (fold (WT = 1)) [2]: 95.7
- efficacy (maximal response) of cAMP stimulation in CHO-JP09 cells, fold over WT-hTSH [2]: 1.5 fold

Substance: hCG α-subunit quadruple mutant Q13K + P16K + Q20K + E14K (from UniProt P01215 25-116; P0DN86 21-165) (ligand)
- Progesterone synthesis in MA10 cells, EC50 [4]: 1.65 ng/mL
- Progesterone synthesis in MA10 cells, Max (%) [4]: 205 % of WT-hCG

Substance: hCG α-subunit double mutant P16K + Q20K (from UniProt P01215 25-116; P0DN86 21-165) (ligand)
- Progesterone synthesis in MA10 cells, EC50 [4]: 1.7 ng/mL
- Progesterone synthesis in MA10 cells, Max (%) [4]: 212 % of WT-hCG

Substance: hCG α-subunit mutant T11K (from UniProt P01215 25-116; P0DN86 21-165) (ligand)
- Progesterone synthesis in MA10 cells, EC50 [4]: 2.79 ng/mL
- Progesterone synthesis in MA10 cells, Max (%) [4]: 156 % of WT-hCG

Substance: hTSH α-subunit double mutant P16K + Q20K (from UniProt P01215 25-116; P01222 21-132) (ligand)
- EC25 of inhibition of 125I-bTSH binding [1]: 6.4 ng/mL
- cAMP stimulation in JP09 cells, EC50 [2]: 0.57 ng/mL
- cAMP stimulation in JP09 cells, Relative potency (WT = 1) (fold (WT = 1)) [2]: 11.8

Substance: hTSH β-subunit mutant I58R+E63R+L69R (from UniProt P01215 25-116; P01222 21-132) (ligand)
- efficacy relative to wild type hTSH (cAMP stimulation, FIG. 2g) [2]: 1.7 fold
- potency relative to wild type hTSH (cAMP stimulation, FIG. 2g) [2]: 50 fold

Substance: hTSH α-subunit mutant P16K + F17T (from UniProt P01215 25-116; P01222 21-132) (ligand)
- cAMP stimulation in JP09 cells, EC50 [2]: 3.52 ng/mL
- cAMP stimulation in JP09 cells, Relative potency (WT = 1) (fold (WT = 1)) [2]: 1.9

Substance: hTSH β-subunit mutant I58R+E63R (from UniProt P01215 25-116; P01222 21-132) (ligand)
- efficacy relative to wild type hTSH (cAMP stimulation, FIG. 2g) [2]: 1.5 fold
- potency relative to wild type hTSH (cAMP stimulation, FIG. 2g) [2]: 15 fold

Substance: hTSH β-subunit mutant E63R (from UniProt P01215 25-116; P01222 21-132) (ligand)
- potency relative to hTSH [2]: 2 to 4 fold
- potency relative to hTSH [3]: 2 to 4 fold
